Data from US20250381289A1 (Genmab, published 2025).

Tests used:
[1] = target: human HER2 recombinant protein (human, UniProt P04626 23-652); test: ELISA, coated human HER2, anti-human Fc-HRP
Experimental: (§1) Binding specificity was tested by ELISA according to the standard protocol. Specifically, 96-well plates were coated with 100 ng/well human EGFR, human HER2, human HER3, human HER4, human cMET, human Sema3A recombinant protein in PBS, incubated overnight at 4° C. Plates were washed twice by TBS+0.05% Tween20. 200 μL blocking buffer (2% BSA in PBS) was added to each well and incubated at 37° C. for 2 h. After wash, Serial diluted antibodies were added to the ELISA plate with 100 μL per well and incubated for 1 h at room temperature. Then plates were washed for 3 times. HRP conjugated anti-human Fc antibody solution (Abcam, ab98624) was added to the plate with 100 μL per well. The plates were incubated at room temperature for 1 h and then washed for 3 times. […] Finally, read the absorbance at A₄₅₀ and A₆₃₀.

[2] = target: T1, human HER4 recombinant protein (human, UniProt Q15303 26-649, limits assumed); test: ELISA, coated human HER4, anti-human Fc-HRP
T1 sequence (looked up): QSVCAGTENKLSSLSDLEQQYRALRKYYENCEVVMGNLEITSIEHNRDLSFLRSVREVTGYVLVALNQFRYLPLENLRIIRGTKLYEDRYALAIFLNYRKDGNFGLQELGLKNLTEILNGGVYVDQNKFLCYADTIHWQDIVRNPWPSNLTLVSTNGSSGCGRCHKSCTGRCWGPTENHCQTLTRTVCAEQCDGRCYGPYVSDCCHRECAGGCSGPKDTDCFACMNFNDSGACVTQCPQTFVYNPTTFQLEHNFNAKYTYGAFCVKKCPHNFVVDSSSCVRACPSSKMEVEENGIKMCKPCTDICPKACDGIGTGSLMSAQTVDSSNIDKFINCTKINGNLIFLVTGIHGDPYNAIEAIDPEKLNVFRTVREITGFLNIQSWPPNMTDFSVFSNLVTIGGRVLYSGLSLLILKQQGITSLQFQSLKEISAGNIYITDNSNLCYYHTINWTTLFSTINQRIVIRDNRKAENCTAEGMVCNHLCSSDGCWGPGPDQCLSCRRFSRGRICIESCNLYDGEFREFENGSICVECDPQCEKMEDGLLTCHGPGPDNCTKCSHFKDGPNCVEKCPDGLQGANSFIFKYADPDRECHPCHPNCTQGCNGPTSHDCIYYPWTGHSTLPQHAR
Experimental: as §1

Human cMET = target: T2, Human cMET (human); test: ELISA, coated human cMET, anti-human Fc-HRP
T2 construct: recombinant protein; also called human cMET recombinant protein
Experimental: as §1

[3] = target: T3, human Sema3A recombinant protein (human, UniProt Q14563 21-771, limits assumed); test: ELISA, coated human Sema3A, anti-human Fc-HRP
T3 sequence (looked up): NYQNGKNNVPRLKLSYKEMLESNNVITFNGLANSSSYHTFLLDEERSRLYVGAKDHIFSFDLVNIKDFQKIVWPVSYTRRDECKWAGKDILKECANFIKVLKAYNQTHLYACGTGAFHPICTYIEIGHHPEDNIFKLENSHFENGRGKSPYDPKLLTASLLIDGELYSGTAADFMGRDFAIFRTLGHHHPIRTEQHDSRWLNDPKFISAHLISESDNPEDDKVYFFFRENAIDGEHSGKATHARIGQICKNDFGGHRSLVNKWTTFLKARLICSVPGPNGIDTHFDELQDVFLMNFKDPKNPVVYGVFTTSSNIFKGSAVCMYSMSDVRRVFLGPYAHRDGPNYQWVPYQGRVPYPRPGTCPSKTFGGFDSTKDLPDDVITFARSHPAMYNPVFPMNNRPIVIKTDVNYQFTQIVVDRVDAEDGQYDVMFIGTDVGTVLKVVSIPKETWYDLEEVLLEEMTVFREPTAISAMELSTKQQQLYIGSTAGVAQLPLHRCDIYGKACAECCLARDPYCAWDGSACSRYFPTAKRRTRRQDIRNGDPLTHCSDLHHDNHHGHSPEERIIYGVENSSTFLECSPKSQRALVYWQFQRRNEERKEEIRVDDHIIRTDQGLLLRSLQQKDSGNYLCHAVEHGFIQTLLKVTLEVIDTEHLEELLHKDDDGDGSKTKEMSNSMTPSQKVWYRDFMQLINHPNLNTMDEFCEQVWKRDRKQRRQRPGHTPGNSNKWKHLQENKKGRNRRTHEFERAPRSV
Experimental: as §1

[4] = target: T4, EGFR on EGFR and cMET co-expressed tumor cell lines (UniProt P00533 25-1210, limits assumed); test: flow cytometry, A431 cells (co-express EGFR and cMET; both arms contribute)
T4 construct: whole, on cells

[5] = target: T5, cMET on EGFR and cMET co-expressed tumor cell lines (UniProt P08581 25-1390, limits assumed); test: as above
T5 construct: whole, on cells

[6] = target: T4, EGFR on EGFR and cMET co-expressed …; test: flow cytometry, EBC-1 cells (co-express EGFR and cMET; both arms contribute)
[7] = target: T5, cMET on EGFR and cMET co-expressed …; test: as above
[8] = target: T4, EGFR on EGFR and cMET co-expressed …; test: flow cytometry, SNU-5 cells (co-express EGFR and cMET; both arms contribute)
[9] = target: T5, cMET on EGFR and cMET co-expressed …; test: as above

T5 sequence (P08581 25-1390 limits assumed): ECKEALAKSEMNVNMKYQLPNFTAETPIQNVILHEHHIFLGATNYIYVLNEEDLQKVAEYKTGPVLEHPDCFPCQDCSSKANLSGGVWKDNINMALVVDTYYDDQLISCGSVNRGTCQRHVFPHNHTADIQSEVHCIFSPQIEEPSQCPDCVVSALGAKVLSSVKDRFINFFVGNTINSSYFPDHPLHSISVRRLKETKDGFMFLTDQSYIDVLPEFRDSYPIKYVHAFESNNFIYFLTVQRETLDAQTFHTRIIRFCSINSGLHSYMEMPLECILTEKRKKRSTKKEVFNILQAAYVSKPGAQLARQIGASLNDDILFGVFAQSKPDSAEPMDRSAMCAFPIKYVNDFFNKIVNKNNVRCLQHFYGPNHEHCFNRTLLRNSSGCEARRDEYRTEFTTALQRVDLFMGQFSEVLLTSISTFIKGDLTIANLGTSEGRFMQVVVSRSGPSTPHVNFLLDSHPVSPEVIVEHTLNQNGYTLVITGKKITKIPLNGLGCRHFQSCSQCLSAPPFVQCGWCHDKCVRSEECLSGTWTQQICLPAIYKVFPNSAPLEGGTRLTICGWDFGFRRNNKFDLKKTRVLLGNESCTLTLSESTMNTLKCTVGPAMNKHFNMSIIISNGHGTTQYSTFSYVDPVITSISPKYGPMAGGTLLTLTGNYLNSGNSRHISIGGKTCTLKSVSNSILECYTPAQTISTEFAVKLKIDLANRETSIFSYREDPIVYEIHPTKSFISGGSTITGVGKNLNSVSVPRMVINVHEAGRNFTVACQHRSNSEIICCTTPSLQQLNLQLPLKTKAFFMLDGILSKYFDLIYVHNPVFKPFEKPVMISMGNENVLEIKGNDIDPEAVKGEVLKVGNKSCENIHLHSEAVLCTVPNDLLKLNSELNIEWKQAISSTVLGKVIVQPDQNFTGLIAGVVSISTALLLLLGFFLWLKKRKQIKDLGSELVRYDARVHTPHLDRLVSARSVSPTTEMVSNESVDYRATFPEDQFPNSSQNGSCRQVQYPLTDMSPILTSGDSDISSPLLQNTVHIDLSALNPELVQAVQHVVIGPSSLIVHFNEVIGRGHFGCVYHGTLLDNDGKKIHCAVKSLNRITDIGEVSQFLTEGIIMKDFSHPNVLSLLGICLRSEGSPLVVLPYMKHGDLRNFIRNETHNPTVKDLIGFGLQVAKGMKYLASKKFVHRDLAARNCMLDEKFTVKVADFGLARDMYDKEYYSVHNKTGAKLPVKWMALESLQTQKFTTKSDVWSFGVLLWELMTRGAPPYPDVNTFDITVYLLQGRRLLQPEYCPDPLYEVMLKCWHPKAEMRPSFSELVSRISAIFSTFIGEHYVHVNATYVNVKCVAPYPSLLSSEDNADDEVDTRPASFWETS
T2 sequence (P08581 whole entry): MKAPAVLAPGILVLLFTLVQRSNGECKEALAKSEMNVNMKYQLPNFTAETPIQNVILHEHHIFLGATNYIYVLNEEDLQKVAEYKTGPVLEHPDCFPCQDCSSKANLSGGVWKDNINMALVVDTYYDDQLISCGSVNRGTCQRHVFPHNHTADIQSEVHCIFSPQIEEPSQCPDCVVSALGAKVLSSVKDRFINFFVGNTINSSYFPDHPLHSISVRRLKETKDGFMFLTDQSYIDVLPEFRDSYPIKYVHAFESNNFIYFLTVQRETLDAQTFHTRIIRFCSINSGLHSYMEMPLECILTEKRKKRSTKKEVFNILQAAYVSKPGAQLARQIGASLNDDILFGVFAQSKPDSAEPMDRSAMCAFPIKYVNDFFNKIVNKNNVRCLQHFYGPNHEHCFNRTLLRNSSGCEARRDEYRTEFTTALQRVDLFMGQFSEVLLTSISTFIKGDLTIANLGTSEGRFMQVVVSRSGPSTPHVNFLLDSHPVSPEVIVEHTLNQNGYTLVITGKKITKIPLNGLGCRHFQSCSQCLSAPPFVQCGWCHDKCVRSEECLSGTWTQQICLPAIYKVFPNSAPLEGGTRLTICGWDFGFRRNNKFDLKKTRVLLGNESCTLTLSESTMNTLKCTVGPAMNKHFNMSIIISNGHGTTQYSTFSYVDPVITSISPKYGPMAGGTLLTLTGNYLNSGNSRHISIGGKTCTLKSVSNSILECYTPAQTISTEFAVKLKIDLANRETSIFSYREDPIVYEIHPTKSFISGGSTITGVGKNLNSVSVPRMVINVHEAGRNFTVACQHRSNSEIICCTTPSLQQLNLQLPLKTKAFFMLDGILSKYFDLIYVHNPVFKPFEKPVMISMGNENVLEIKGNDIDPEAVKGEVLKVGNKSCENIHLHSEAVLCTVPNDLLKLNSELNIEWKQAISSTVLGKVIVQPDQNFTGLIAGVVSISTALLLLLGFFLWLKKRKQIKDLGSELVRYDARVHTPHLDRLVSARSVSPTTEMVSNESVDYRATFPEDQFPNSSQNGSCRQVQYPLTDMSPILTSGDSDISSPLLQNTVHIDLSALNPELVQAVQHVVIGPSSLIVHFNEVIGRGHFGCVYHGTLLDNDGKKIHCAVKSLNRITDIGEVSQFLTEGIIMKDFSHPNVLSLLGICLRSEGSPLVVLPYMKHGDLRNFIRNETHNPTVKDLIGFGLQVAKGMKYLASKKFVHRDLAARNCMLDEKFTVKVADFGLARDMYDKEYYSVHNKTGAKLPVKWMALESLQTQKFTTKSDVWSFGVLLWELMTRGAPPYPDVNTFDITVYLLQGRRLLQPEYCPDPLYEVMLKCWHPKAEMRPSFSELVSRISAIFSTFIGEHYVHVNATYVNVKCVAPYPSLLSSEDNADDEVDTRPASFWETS

binding result [1]: no binding (tested: about 130 nM)
binding result [2]: no binding (tested: about 130 nM)
EC50 (read off the curve) (Human cMET): ~4 nM
binding result [3]: no binding (tested: about 120 nM)
EC50 (read off the curve) [4]: ~10 nM
EC50 (read off the curve) [5]: ~10 nM
EC50 (read off the curve) [6]: ~1 nM
EC50 (read off the curve) [7]: ~1 nM
EC50 (read off the curve) [8]: ~2 nM
EC50 (read off the curve) [9]: ~2 nM
B1: AZD9592-Ab (bispecific antibody, human IgG1, kappa, lambda)
anti EGFR heavy chain: QVQLVQSGAEVKKPGSSVKVSCKASGGTFSDNDFSWVRQAPGQGLEWMGAIVAVFRTETYAQKFQDRVKITADISTRTTYMELSSLRSEDTAVYYCARRLMSAISGPGAPLLMWGQGTLVTVSSASTKGPSVCPLAPSSKSTSGGTAALGCLVKDYFPEPVTVSWNSGALTSGVHTFPAVLQSSGLYSLSSVVTVPSSSLGTQTYICNVNHKPSNTKVDKRVEPKSVDKTHTCPPCPAPEFEGGPSVFLFPPKPKDTLMISRTPEVTCVVVDVSHEDPEVKFNWYVDGVEVHNAKTKPREEQYNSTYRVVSVLTVLHQDWLNGKEYKCKVSNKALPASIEKTISKAKGQPREPQVYTLPPCREEMTKNQVSLWCLVKGFYPSDIAVEWESNGQPENNYKTTPPVLDSDGSFFLYSKLTVDKSRWQQGNVFSCSVMHEALHNHYTQKSLSLSPGK
anti EGFR light chain: QSALTQPRSVSGSPGQSVTISCTGTSSDVGGYNYVSWYQQHPGKAPKLMIYDVSKRPSGVPDRFSGSKSGNTASLTISGLQAEDEADYYCSSYTSSDTLEIFGGGTKLTVLGQPKAAPSVTLFPPCSEELQANKATLVCLISDFYPGAVTVAWKADSSPVKAGVETTTPSKQSNNKYAASSYLSLTPEQWKSHRSYSCQVTHEGSTVEKTVAPTEVS
anti cMET heavy chain: QVQLVQSGAEVKKPGASVKVSCKASGYTFTDYYIHWVRQATGQGLEWMGWMNPNSGNTGYAQKFQGRVTMTRDTSISTAYMELSSLRSEDTAVYYCARGQGYTHSWGQGTMVTVSSASTKGPSVFPLAPSSKSTSGGTAALGCLVKDYFPEPVTVSWNSGALTSGVHTFPAVLQSSGLYSLSSVVTVPSSSLGTQTYICNVNHKPSNTKVDKRVEPKSCDKTHTCPPCPAPEFEGGPSVFLFPPKPKDTLMISRTPEVTCVVVDVSHEDPEVKFNWYVDGVEVHNAKTKPREEQYNSTYRVVSVLTVLHQDWLNGKEYKCKVSNKALPASIEKTISKAKGQPREPQVCTLPPSREEMTKNQVSLSCAVKGFYPSDIAVEWESNGQPENNYKTTPPVLDSDGSFFLVSKLTVDKSRWQQGNVFSCSVMHEALHNHYTQKSLSLSPGK
anti cMET light chain: DIQMTQSPSTLSASVGDRVTITCRASEGIYHWLAWYQQKPGKAPKLLIYKASSLASGVPSRFSGSGSGTEFTLTISSLQPDDFATYYCQQYSNYPPTFGGGTKLEIKRTVAAPSVFIFPPSDEQLKSGTASVVCLLNNFYPREAKVQWKVDNALQSGNSQESVTEQDSKDSTYSLSSTLTLSKADYEKHKVYACEVTHQGLSSPVTKSFNRGEC
notes: also called RAA22/B09-TM
